The text below walks through data of patent US20240209086A1 (PETMEDIX, published 2024).

B1: PMX178 (monospecific anti-canine CD3, canine IgG-B effector function deficient Fc) (antibody, V domains shown)
VH: ELALQESGPGLVRPSQTLSLTCVVSGGSVTRSYYWNWIRQRPGRGLEWMGYWTGTTIYNPAFQGRISITVDTAKNQFSLHLISMTTEDTAVYYCGREGGSSLGAIAYWGQGTRVTVSS
VL: SYVLTQLPSKNVTLKQPAHITCGGDNIGRKSVHWYQQKLGQAPVLIIYYDSSRPTGIPERFSGANSGNTATLTISGALAEDEADYYCQVWDSSAKAAVFGGGTHLTVL
B2: PMX157 (monospecific anti-canine CD3, canine IgG-B effector function deficient Fc) (antibody, V domains shown)
VH: ELTLQESGPGLVKPSQTLSLTCVVSGGSVTSSYFWNWIRQRPGRGLEWMGYWTGSTIYSPAFQGRISITPDTAKNQFSLQLSSMTTEDTAVYYCSREGGSTLGAFAYWGQGTLVTVSS
VL: SYVLTQLPSKNVTLKQPAHITCGGDKIGSKSVHWYQQKLGQAPVLIIYYDSSRPTGIPERFSGANSGNTATLTISGALAEDEADYYCQVWDSSAKASVFGGGTHLTVL
B3: PMX167 (monospecific anti-canine CD3, canine IgG-B effector function deficient Fc) (antibody, V domains shown)
VH: EVKLVESGGDLVKPGGSLRLSCMASGFTLNNYYMSWVRQAPGKGLQWVAYIKSGGSDTSYVDAVKGRFTISRDNAKNTLHLQMNSLRVEDTAVYYCATDGYIWAWGQGTLVTVSS
VL: SYVLTQLPSKNVTLKQPAHITCGGDNIGSKSVHWYQQKLGQAPVLIIYYDNSRPTGIPERFSGAKSGNTATLTISGALAEDEADYYCQVWDSSSKAYVFGSGTQLTVL
B4: PMX165 (monospecific anti-canine CD3, canine IgG-B effector function deficient Fc) (antibody)
heavy: EVQLVESGGDLVKPGGSLRLSCVASGFNFSASHMSWVRQAPGKGLQWVAYITNAGGRISYADAVKGRFTISRDNAKNTLYLQMSSLRVEDTAVYYCATERPGRRMGLKDYGMDYWGHGTSLFVSSASTTAPSVFPLAPSCGSTSGSTVALACLVSGYFPEPVTVSWNSGSLTSGVHTFPSVLQSSGLYSLSSMVTVPSSRWPSETFTCNVAHPASKTKVDKPVPKRENGRVPRPPDCPKCPAPESLGGPSVFIFPPKPKDTLLIARTPEVTCVVVDLGREDPEVQISWFVDGKQMQTAKTQPREEQFNGTYRVVSVLPIGHQDWLKGKQFTCKVNHIGLPSPIERTISKARGQAHQPSVYVLPPSREELSKNTVSLTCLIKDFFPPDIDVEWQSNGQQEPESKYRTTPPQLDEDGSYFLYSKLSVDKSRWQRGDTFICAVMHEALHNHYTQKSLSHSPGK
VL: SYVLTQLPSKNVTLKQPAHITCGGDNIGSKSVHWYQQKLGQAPVLIIYYDSSRPTGIPERFSGANSGNTATLTISGALAEDEADYYCQVWDSSAKASVFGGGTHLTVL
B5: PMX166 (monospecific anti-canine CD3, canine IgG-B effector function deficient Fc) (antibody, V domains shown)
VH: ELTLQESGPGLVKPSQTLSLTCVVSGGSVTSSYFWNWIRQRPGRGLEWMGYWTGSTIYSPAFQGRISITPDTAKNQFSLQLSSMTTEDTAVYYCSREGGSTLGAFAYWGQGTLVTVSS
VL: SYVLTQLPSKNVTLKQPAHITCGGDNIGSKSVHWYQQKLGQAPVLIIYYDSSRPTGIPERFSGANSGNTATLTISGALAEDEADYYCQVWDSSAKASVFGGGTHLTVL
B6: PMX168 (monospecific anti-canine CD3, canine IgG-B effector function deficient Fc) (antibody, V domains shown)
VH: ELTLQESGPGLVKPSQTLSLTCVVSGGSVTRSYYWNWIRQRPGRGLEWMGYWTGTTNYNPAFQGRISITADTAKNQCSLQLSSMTTEDTAVYYCAREGGKLLGAFGHWGQGTLVTVSS
VL: SYVLTQLPSKNVTLKQPAHITCGGDKIGSKSVHWYQQKLGQAPVLIIYYDSSRPTGIPERFSGANSGNTATLTISGALAEDEADYYCQVWDSSAKASVFGGGTHLTVL

For this test, the target named is canine CD3 on canine T cells (canine PBMC) (canine, UniProt P27597 22-202). Description: cell-based or functional assay.
Chain of canine CD3 on canine T cells (canine PBMC) (P27597 22-202 limits assumed, chain 1 of 3): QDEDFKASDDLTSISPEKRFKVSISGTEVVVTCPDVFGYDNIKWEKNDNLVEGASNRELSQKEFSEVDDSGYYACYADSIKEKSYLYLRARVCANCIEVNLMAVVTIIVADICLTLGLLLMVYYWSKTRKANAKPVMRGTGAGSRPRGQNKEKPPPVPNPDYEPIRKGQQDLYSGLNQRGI
Chain of canine CD3 on canine T cells (canine PBMC) (chain, as listed by the source limits assumed, chain 2 of 3): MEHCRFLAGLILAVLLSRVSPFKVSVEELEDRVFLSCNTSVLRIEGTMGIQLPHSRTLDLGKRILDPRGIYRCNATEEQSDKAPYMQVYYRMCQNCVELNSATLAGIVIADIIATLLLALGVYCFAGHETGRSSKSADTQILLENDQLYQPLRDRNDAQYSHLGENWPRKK
Chain of canine CD3 on canine T cells (canine PBMC) (chain, as listed by the source limits assumed, chain 3 of 3): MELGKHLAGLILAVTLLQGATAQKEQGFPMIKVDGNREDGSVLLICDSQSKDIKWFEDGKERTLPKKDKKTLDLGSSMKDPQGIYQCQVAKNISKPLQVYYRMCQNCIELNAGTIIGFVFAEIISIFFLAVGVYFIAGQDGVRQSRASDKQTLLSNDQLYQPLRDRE
With B1, the “CD25 Activation, Day 6, IS” value is 9.79; the “CD25 Activation, Day 6, PB” value was 20.5; the “CD25 Activation, Day 9, IS” value was 8.41; the “CD25 Activation, Day 9, PB” value was determined as 9.23. Besides, the “IFNy Concentration pg/ml, Day 6, IS” value was determined as 24.7 pg/mL; the “IFNy Concentration pg/ml, Day 9, IS” value turned out to be 223 pg/mL; the “IFNy Concentration pg/ml, Day 9, PB” value amounted to 2110 pg/mL; the “Ki67 Proliferation, Day 6, IS” value is 0.84. Further, the “Ki67 Proliferation, Day 6, PB” value amounted to 1.13; the “Ki67 Proliferation, Day 9, IS” value was found to be 1.83; the “Ki67 Proliferation, Day 9, PB” value stood at 0.16.
Take B2: the “CD25 Activation, Day 6, IS” value was 9.65; the “CD25 Activation, Day 6, PB” value came to 11.6; the “CD25 Activation, Day 9, IS” value came out at 9.96; the “CD25 Activation, Day 9, PB” value came to 8.72. Besides, the “IFNy Concentration pg/ml, Day 6, IS” value came to 44.4 pg/mL; the “IFNy Concentration pg/ml, Day 9, IS” value was found to be 209 pg/mL; the “IFNy Concentration pg/ml, Day 9, PB” value was found to be 3140 pg/mL; the “Ki67 Proliferation, Day 6, IS” value came to 1.24. For the same molecule, the “Ki67 Proliferation, Day 6, PB” value was 0.4; the “Ki67 Proliferation, Day 9, IS” value stood at 0.85; the “Ki67 Proliferation, Day 9, PB” value was 0.34.
Take B3: the “CD25 Activation, Day 6, IS” value turned out to be 7.09; the “CD25 Activation, Day 6, PB” value came to 4.93; the “CD25 Activation, Day 9, IS” value was determined as 11.6; the “CD25 Activation, Day 9, PB” value is 12.8. Besides, the “IFNy Concentration pg/ml, Day 6, IS” value was found to be 63.5 pg/mL; the “IFNy Concentration pg/ml, Day 9, IS” value was 802 pg/mL; the “IFNy Concentration pg/ml, Day 9, PB” value stood at 1290 pg/mL; the “Ki67 Proliferation, Day 6, IS” value came to 1.55. The “Ki67 Proliferation, Day 6, PB” value worked out at 0; the “Ki67 Proliferation, Day 9, IS” value was 2.66; the “Ki67 Proliferation, Day 9, PB” value came out at 0.25.
For B4, the “CD25 Activation, Day 6, IS” value stood at 12.1; the “CD25 Activation, Day 6, PB” value came out at 13.4; the “CD25 Activation, Day 9, IS” value worked out at 10.4; the “CD25 Activation, Day 9, PB” value amounted to 23.6. For the same molecule, the “IFNy Concentration pg/ml, Day 6, IS” value is 74.6 pg/mL; the “IFNy Concentration pg/ml, Day 9, IS” value is 108 pg/mL; the “IFNy Concentration pg/ml, Day 9, PB” value was 1370 pg/mL; the “Ki67 Proliferation, Day 6, IS” value was 1.67. Also, the “Ki67 Proliferation, Day 6, PB” value was 0.26; the “Ki67 Proliferation, Day 9, IS” value worked out at 1.3; the “Ki67 Proliferation, Day 9, PB” value was 0.
For B5, the “CD25 Activation, Day 6, IS” value was 11.4; the “CD25 Activation, Day 6, PB” value was 14.5; the “CD25 Activation, Day 9, IS” value was 9.15; the “CD25 Activation, Day 9, PB” value was determined as 22. Also, the “IFNy Concentration pg/ml, Day 6, IS” value is 67.6 pg/mL; the “IFNy Concentration pg/ml, Day 9, IS” value is 112 pg/mL; the “IFNy Concentration pg/ml, Day 9, PB” value worked out at 2780 pg/mL; the “Ki67 Proliferation, Day 6, IS” value is 2.77. In addition, the “Ki67 Proliferation, Day 6, PB” value amounted to 0.95; the “Ki67 Proliferation, Day 9, IS” value was 0.92; the “Ki67 Proliferation, Day 9, PB” value was 1.28.
As to B6, the “CD25 Activation, Day 6, IS” value was determined as 7.17; the “CD25 Activation, Day 6, PB” value was 13.4; the “CD25 Activation, Day 9, IS” value was 8.87; the “CD25 Activation, Day 9, PB” value stood at 6.52. Besides, the “IFNy Concentration pg/ml, Day 6, IS” value was found to be 61.1 pg/mL; the “IFNy Concentration pg/ml, Day 9, IS” value stood at 301 pg/mL; the “IFNy Concentration pg/ml, Day 9, PB” value amounted to 2450 pg/mL; the “Ki67 Proliferation, Day 6, IS” value worked out at 1.57. For the same molecule, the “Ki67 Proliferation, Day 6, PB” value is 0.15; the “Ki67 Proliferation, Day 9, IS” value was found to be 1.53; the “Ki67 Proliferation, Day 9, PB” value came out at 0.36.
